From patent publication US20130142799A1 (Amgen, published 2013)
Where a chain is given by its changes, count along the chain named.

T1: murine Ang-2, His-tagged (mouse, UniProt O35608 19-496)
T1 construct: also called mAng-2; mAng-2-His
T1 sequence (looked up): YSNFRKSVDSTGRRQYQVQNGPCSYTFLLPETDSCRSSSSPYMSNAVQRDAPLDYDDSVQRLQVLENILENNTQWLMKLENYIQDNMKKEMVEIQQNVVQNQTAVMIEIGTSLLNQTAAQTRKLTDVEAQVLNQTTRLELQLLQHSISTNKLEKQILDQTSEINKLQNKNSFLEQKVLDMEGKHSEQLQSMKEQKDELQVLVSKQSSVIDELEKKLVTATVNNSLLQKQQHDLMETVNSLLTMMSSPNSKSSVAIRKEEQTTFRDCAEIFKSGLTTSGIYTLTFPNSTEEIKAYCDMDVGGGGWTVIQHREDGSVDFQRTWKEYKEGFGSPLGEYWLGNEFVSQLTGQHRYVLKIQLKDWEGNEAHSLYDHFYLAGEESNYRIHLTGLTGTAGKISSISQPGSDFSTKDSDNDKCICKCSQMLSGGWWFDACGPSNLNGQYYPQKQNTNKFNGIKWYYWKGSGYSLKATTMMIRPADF

T2: human angiopoietin-2 (human, UniProt O15123 19-496, limits assumed)
T2 construct: also called hAng-2; huAng-2
T2 sequence (looked up): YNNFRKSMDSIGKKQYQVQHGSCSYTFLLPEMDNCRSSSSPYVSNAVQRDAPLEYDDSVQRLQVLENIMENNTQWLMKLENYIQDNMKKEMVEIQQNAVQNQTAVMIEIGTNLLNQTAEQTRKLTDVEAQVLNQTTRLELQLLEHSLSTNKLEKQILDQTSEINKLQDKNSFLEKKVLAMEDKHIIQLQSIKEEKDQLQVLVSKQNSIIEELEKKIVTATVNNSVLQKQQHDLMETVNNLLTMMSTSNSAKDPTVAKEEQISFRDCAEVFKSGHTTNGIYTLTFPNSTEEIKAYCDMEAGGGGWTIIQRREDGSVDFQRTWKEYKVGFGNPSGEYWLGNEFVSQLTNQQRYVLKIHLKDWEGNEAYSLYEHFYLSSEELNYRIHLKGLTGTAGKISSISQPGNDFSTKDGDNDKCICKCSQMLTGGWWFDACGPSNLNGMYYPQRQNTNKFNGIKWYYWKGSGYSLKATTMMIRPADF

T3: human angiopoietin-1 (human, UniProt Q15389 20-498)
T3 construct: also called hAng-1; Human Ang1
T3 sequence (looked up): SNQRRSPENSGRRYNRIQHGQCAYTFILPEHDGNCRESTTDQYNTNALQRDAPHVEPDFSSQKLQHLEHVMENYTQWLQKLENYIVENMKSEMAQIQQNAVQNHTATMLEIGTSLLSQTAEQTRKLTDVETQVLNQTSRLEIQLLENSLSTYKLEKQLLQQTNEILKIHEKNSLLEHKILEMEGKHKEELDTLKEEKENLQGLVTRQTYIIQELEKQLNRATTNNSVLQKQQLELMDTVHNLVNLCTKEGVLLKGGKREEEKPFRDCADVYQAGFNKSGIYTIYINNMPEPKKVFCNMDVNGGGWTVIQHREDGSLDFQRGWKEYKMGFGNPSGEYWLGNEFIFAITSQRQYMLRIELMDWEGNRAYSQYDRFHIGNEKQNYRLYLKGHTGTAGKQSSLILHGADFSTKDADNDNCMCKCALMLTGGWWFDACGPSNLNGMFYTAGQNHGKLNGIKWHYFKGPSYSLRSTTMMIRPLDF

B1: Ab 555 (antibody, human IgG1, kappa, V domains shown)
VH: QVQLQESGGGVVQPGRSLRLSCAASGFTFSSYAMHWVRQAPGKGLEWVAVISYDGSNKYYADSVKGRFTISRDNSKNTLYLQMNSLRAEDTAVYYCARSASDHYYDSSGYYSDAFDIWGQGTMVTVSS
VL: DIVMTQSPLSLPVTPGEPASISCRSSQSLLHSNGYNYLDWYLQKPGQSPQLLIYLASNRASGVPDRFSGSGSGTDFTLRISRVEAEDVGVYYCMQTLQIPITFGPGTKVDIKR
notes: Fully human IgG1 kappa
B2: Ab 526 (antibody, human IgG1, kappa, V domains shown)
VH: EVQLVESGGGVVQPGRSLRLSCAASGFTFSSYGMHWVRQAPGKGLEWVSAISGSGGSTYYADSVKGRFTISRDNAKNSLYLQMNSLRAEDTAVYYCARDLLDYDILTGPYAYWGQGTLVTVSS
VL: not shown
notes: Fully human IgG1 kappa
B3: Ab 537 (antibody, human IgG1, V domains shown)
VH: QVQLVQSGAEVKKPGSSVKVSCKASGGTFSSYAISWVRQAPGQGLEWMGGIIPILGIANYAQKFQGRVTITADKSTSTAYMELSGLGSEDTAVYYCARGSSDAAVAGMWGQGTLVTVSS
VL: QSVLTQPPSVSAAPGQDVTISCSGNNSNIGNNYVSWYQQVPGTAPKLLVYDNHKRPSGISDRFSGSKSDTSATLDITGLQPGDEADYYCGTWDTSLSANWVFGGGTKLTVLR
notes: Fully human IgG1 lambda; also called clone 537
B4: Ab 528 (antibody, human IgG1, lambda, V domains shown)
VH: QVQLVQSGAEVKKPGSSVKVSCKASGGTFSSYAISWVRQAPGQGLEWMGGIIPIFGTANYAQKFQGRVTITADESTSTAYMELSSLRSEDTAVYYCARGVVGDFDWLSFFDYWGQGTLVTVSS
VL: SYELTQPPSVSVSPGQTASITCSGDKLGYTYTSWFQQKPGQSPVLVIFQDFKRPSGIPERFSGSNSGNTATLTISGTQAMDEADYYCQAWDSTTAVVFGTGTKVTVLG
notes: Fully human IgG1 lambda
B5: Ab 536 (THW/LQT mixture) (antibody, V domains shown)
VH: EVQLVQSGGGVVQPGRSLRLSCAASGFTFSSYGMHWVRQAPGKGLEWVSYISSSGSTIYYADSVKGRFTISRDNAKNSLYLQMNSLRAEDTAVYYCARDLLDYDILTGYGYWGQGTLVTVSS
VL: not shown
notes: each antibody in the mixture has two heavy and two light chains; also called clone 536; copies: 2 + 2
B6: Ab 533 (antibody, human IgG1, kappa, V domains shown)
VH: B5 VH
VL: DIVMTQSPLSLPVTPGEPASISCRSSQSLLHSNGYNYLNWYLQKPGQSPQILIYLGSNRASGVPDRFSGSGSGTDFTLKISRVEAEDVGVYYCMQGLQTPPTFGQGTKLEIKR
notes: also called clone 533
B7: Ab 543 (antibody, human IgG1, kappa, V domains shown)
VH: QVQLVQSGAEVKKPGSSVKVSCKASGGTFSSYAISWVRQAPGQGLEWMGRIIPILGIANYAQKFQGRVTITADKSTSTAYMELSSLRSEDTAVYYCARPYYDFWSGPGGMDVWGQGTTVTVSS
VL: not shown
notes: Fully human IgG1 kappa
B8: Ab G1D4 (antibody, human IgG1, lambda, V domains shown)
VH: QVQLVQSGAEVKKPGSSVKVSCKASGGTFSSHAISWVRQAPGQGLEWMGRIIPILGIANYAQKFQGRVTITADESTSTAYMELSSLRSEDTAVYYCATSRLEWLLYLDYWGQGTLVTVSS
VL: NFMLTQPHSVSESPGKTVIIPCTRSSGSIASNYVQWYQKRPGSAPSIVIYEDKQRPSGVPDRFSGSIDSSSNSASLTISGLKTEDEADYYCQSYNSRGVMFGGGTKLTVLG
notes: Fully human IgG1 lambda
B9: Ab 544 (antibody, human IgG1, lambda, V domains shown)
VH: QVQLVQSGAEVKKPGASVKVSCKASGGTFSSYAISWVRQAPGQGLEWMGGIIPIFGTANYAQKFQGRVTITADESTSTAYMELSSLRSEDTAVYYCARFESGYWGDAFDIWGQGTMVTVSS
VL: SYELTQPPSVSVSPGQTARITCSGDALPKQYAYWYQQKPGQAPVLVIYKDSERPSGIPERFSGSSSGTTVTLTISGVQAEDEADYYCQSADSSHVVFGGGTKLTVLG
notes: also called clone 544
B10: Ab 535 (antibody, human IgG1, lambda, V domains shown)
VH: B9 VH with A16S, E74K, R98A, E100S, S101P, G102F, Y103T, W104E, G105T
VL: QSVLTQPPSVSAAPGQKVTISCSGSNSNIGNNFVSWYQQLPGTAPKLLVYDNNKRPSGIPDRFSGSKSGTSATLGITGLQTGDEADYYCGTWDSSLSAAEVVFGGGTKLTVLG
notes: Fully human IgG1 lambda
B11: Ab 540 (antibody, human IgG1, lambda, V domains shown)
VH: QVQLVQSGAEVKKPGSSVKVSCKASGGTFSSYAISWVRQAPGQGLEWMGGIIPILGIANYAQKFQGRVTITADKFTSTAYMELSSLGSEDTAVYYCARAVPGTEDAFDIWGQGTMVTVSS
VL: QSVLTQPPSVSAAPGQKVTISCSGSSSNIGANYVSWYQQLPGTAPKLLIYNNNKRPSGIPDRFSGSKSDTSATLGITGLQTGDEADYYCGAWDSSLSASWVFGGGTKLTVLG
notes: Fully human IgG1 lambda
B12: Ab 531 (antibody, human IgG1, lambda, V domains shown)
VH: EVQLVQSGAEVKKPGSSVKVSCKASGGTFSSYAISWVRQAPGQGLEWMGGIIPILGIANYAQKFQGRVTITADKSTNTAYMELTSLTSDDTAVYYCARDREDTAMVFNYWGQGTLVTVSS
VL: B11 VL with I20V, A31N, N51D, D69G, A91T, S99F
notes: Fully human IgG1 lambda
B13: Ab 553 (antibody, human IgG1, kappa, V domains shown)
VH: QVQLVQSGAEVKKPGASVKVSCKASGYTFTSYAMHWVRQAPGQRLEWMGWINAGNGNTKYSQKFQGRVTITRDTSASTAYMELSGLRSEDTAVYYCARGVDDYGGNSWAFDIWGQGTMVTVSS
VL: DIVMTQSPLSLPVTPGEPASISCRSSQSLLHSNGYNYLDWYLQKPGQSPQLLIYLGSNRASGVPDRFTGSGSATDFTLRISRVEAEDVGVYYCMQALQTPLTFGGGTKVEIKR
notes: Fully human IgG1 kappa

molecular target: T1, murine Ang-2, His-tagged; assay: Neutralization ELISA: antibody titrated against 1 nM Tie2-Fc on plate-bound mAng-2

IC50 [nM] | Binder
1.76 | B1
0.27 | B2
0.62 | B3
0.73 | B4
0.05 | B5
0.08 | B6
0.24 | B7
0.6 | B8
1.82 | B9
2.45 | B10
1.53 | B11
1.67 | B12
1.41 | B13

molecular target: T2, human angiopoietin-2; assay: Neutralization ELISA: antibody titrated against 1 nM Tie2-Fc on plate-bound hAng-2
Method: Microtiter plates to which human Ang-2 polypeptide was bound were prepared as described for the Affinity ELISA. […] Next, about 100 microliters per well of goat anti-mouse-IgG-HRP (Pierce Chemical CO., catalog #31432) was added at a dilution of 1:10,000 in PBS containing about 1 percent BSA. Plates were incubated at room temperature for about 1 hour, after which they were washed five times with PBS containing about 0.1 percent Tween-20. About 100 microliters per well of TMB substrate (described above) was then added and color was allowed to develop. Absorbance was then read in a spectrophotomer at 370 nm.
Seventeen of the antibodies and a negative control IgG1 (referred to as RDB1) were tested using affinity and neutralization ELISA (as described in Example 3 above) as well as the BIAcore neutralization assay to determine their affinity, neutralization, and specificity capabilities.

IC50 [nM] | Binder
2.21 | B1
1.83 | B2
0.56 | B3
1.37 | B4
0.08 | B5
0.3 | B6
0.51 | B7
1.39 | B8
0.97 | B9
2.81 | B10
0.7 | B11
2.15 | B12
1.47 | B13

molecular target: T1, murine Ang-2, His-tagged; assay: BIAcore: antibody captured on Protein G, mAng-2 injected
Method: (§1) Binding assays were carried out by first attaching about 100 Ru of each candidate anti-Ang-2 antibody to the immobilized Protein G, after which various concentrations (0-100 nM) of huAng-2 or mAng-2 were then injected over the bound antibody surface at a flow rate of about 50 ul/min for about 3 minutes. Antibody binding kinetics including kₐ (association rate constant), kd (dissociation rate constant) and KD (dissociation equilibrium constant) were determined using the BIA evaluation 3.1 computer program (BIAcore, Inc.).

Kd [nM] | koff [s⁻¹] | kon [M⁻¹ s⁻¹] | Binder
0.15 | 9.5e-05 | 620000 | B5

molecular target: T3, human angiopoietin-1; assay: Neutralization ELISA: antibody titrated against 1 nM Tie2-Fc on plate-bound hAng-1

IC50 [nM] | Binder
243 | B2
115 | B5
69.5 | B8
23.3 | B9

molecular target: T3, human angiopoietin-1; assay: Affinity ELISA on plate-bound hAng-1

EC50 [nM] | Binder
30 | B5

molecular target: T2, human angiopoietin-2; assay: Affinity ELISA on plate-bound hAng-2

EC50 [nM] | Binder
0.005 | B5

molecular target: T2, human angiopoietin-2; assay: BIAcore: antibody captured on Protein G, huAng-2 injected
Method: as §1

Kd [nM] | koff [s⁻¹] | kon [M⁻¹ s⁻¹] | Binder
0.12 | 3.8e-05 | 320000 | B5

molecular target: T1, murine Ang-2, His-tagged; assay: Affinity ELISA on plate-bound mAng-2

EC50 [nM] | Binder
0.01 | B5
